# From patent US20090143319, “Transcription factor decoy” (AnGesMG, Inc., published 2009)
# B1: SEQ-K (dsDNA)
# DNA 1: AGTTGAAGGGATTTCCCTAGGC
# DNA 2: GCCTAGGGAAATCCCTTCAACT
# B2: SEQ-L (dsDNA)
# DNA 1: CCTTGAGGGGACTTTCCCCC
# DNA 2: GGGGGAAAGTCCCCTCAAGG
# B3: SEQ-M (dsDNA)
# DNA 1: ACCAAGGGATTTCCCTGTCCCAC
# DNA 2: GTGGGACAGGGAAATCCCTTGGT
# B4: SEQ-9 (dsDNA)
# DNA 1: CCTTGAGGGGATTTCCCCCC
# DNA 2: GGGGGGAAATCCCCTCAAGG
# modifications: PS (*): C*C*TTG*A*GGGGATTT*C*CCCCC / antisense 5'-G*G*GGGGAAA*T*C*CCCTCAAGG
# B5: SEQ-40 (mixed)
# DNA: CCTTGAGGGGATTTCCCCCC
# mixed: GGGGGGAAATCCCCUCAAGG
# modifications: LNA/RNA marked by bold/italic, positions not recoverable from text
# B6: SEQ-46 (dsDNA)
# DNA 1: CCTTGAAGGGACTTTCCTCC
# DNA 2: GGAGGAAAGTCCCTTCAAGG
# modifications: PS at 2 bonds at each end of both strands
# B7: SEQ-47 (dsDNA)
# DNA 1: CCTTGAAGGGACTTTCCTCC
# DNA 2: GGAGGAAAGTCCCTTCAAGG
# modifications: PS (*): C*C*TTGAAGGGACTTTCCT*C*C / 3'-G*G*AAC*T*T*…*G*G
# B8: SEQ-48 (dsDNA)
# DNA 1: CCTTGAAGGGACTTTCCTCC
# DNA 2: GGAGGAAAGTCCCTTCAAGG
# modifications: PS (*): C*C*TTGAAGGGACTTTCCT*C*C / 3'-G*G*AACTTCC*C*T*GAAAGGA*G*G
# B9: SEQ-49 (dsDNA)
# DNA 1: CCTTGAAGGGACTTTCCTCC
# DNA 2: GGAGGAAAGTCCCTTCAAGG
# modifications: PS (*): C*C*TTGAAGGGACTTTCCT*C*C / 3'-G*G*…*G*A*AAGGA*G*G
# B10: SEQ-13 (dsDNA)
# DNA 1: GGGGATTTCCCC
# DNA 2: GGGGAAATCCCC
# B11: SEQ-14 (dsDNA)
# DNA 1: AGGGGATTTCCCC
# DNA 2: GGGGAAATCCCCT
# B12: SEQ-15 (dsDNA)
# DNA 1: GAGGGGATTTCCCC
# DNA 2: GGGGAAATCCCCTC
# B13: SEQ-16 (dsDNA)
# DNA 1: TGAGGGGATTTCCCC
# DNA 2: GGGGAAATCCCCTCA
# B14: SEQ-17 (dsDNA)
# DNA 1: TTGAGGGGATTTCCCC
# DNA 2: GGGGAAATCCCCTCAA
# B15: SEQ-18 (dsDNA)
# DNA 1: CTTGAGGGGATTTCCCC
# DNA 2: GGGGAAATCCCCTCAAG
# B16: SEQ-19 (dsDNA)
# DNA 1: CCTTGAGGGGATTTCCCC
# DNA 2: GGGGAAATCCCCTCAAGG
# B17: SEQ-20 (dsDNA)
# DNA 1: GGGGATTTCCCCC
# DNA 2: GGGGGAAATCCCC
# B18: SEQ-21 (dsDNA)
# DNA 1: AGGGGATTTCCCCC
# DNA 2: GGGGGAAATCCCCT
# B19: SEQ-22 (dsDNA)
# DNA 1: GAGGGGATTTCCCCC
# DNA 2: GGGGGAAATCCCCTC
# B20: SEQ-23 (dsDNA)
# DNA 1: TGAGGGGATTTCCCCC
# DNA 2: GGGGGAAATCCCCTCA
# B21: SEQ-24 (dsDNA)
# DNA 1: TTGAGGGGATTTCCCCC
# DNA 2: GGGGGAAATCCCCTCAA
# B22: SEQ-25 (dsDNA)
# DNA 1: CTTGAGGGGATTTCCCCC
# DNA 2: GGGGGAAATCCCCTCAAG
# B23: SEQ-26 (dsDNA)
# DNA 1: CCTTGAGGGGATTTCCCCC
# DNA 2: GGGGGAAATCCCCTCAAGG
# B24: SEQ-27 (dsDNA)
# DNA 1: GGGGATTTCCCCCC
# DNA 2: GGGGGGAAATCCCC
# B25: SEQ-28 (dsDNA)
# DNA 1: AGGGGATTTCCCCCC
# DNA 2: GGGGGGAAATCCCCT
# B26: SEQ-29 (dsDNA)
# DNA 1: GAGGGGATTTCCCCCC
# DNA 2: GGGGGGAAATCCCCTC
# B27: SEQ-30 (dsDNA)
# DNA 1: TGAGGGGATTTCCCCCC
# DNA 2: GGGGGGAAATCCCCTCA
# B28: SEQ-31 (dsDNA)
# DNA 1: TTGAGGGGATTTCCCCCC
# DNA 2: GGGGGGAAATCCCCTCAA
# B29: SEQ-32 (dsDNA)
# DNA 1: CTTGAGGGGATTTCCCCCC
# DNA 2: GGGGGGAAATCCCCTCAAG
# B30: SEQ-33 (dsDNA)
# DNA 1: GAGGGGATTTCCCC
# DNA 2: GGGGAAATCCCCTC
# modifications: PS (*): G*A*GGGGATTT*C*CCC / antisense 5'-GGGGAAA*T*C*CCCTC
# B31: SEQ-34 (dsDNA)
# DNA 1: GAGGGGATTTCCCC
# DNA 2: GGGGAAATCCCCTC
# modifications: PS (*): G*A*GGGGATTT*C*CCC / antisense 5'-G*GGGAAA*T*C*CCCTC
# B32: SEQ-35 (dsDNA)
# DNA 1: GAGGGGATTTCCCC
# DNA 2: GGGGAAATCCCCTC
# modifications: PS (*): G*A*GGGGATTT*C*CCC / antisense 3'-CTCCC*C*T*AAAG*G*GGG (so in the source)
# B33: SEQ-36 (dsDNA)
# DNA 1: TTGAGGGGATTTCCCC
# DNA 2: GGGGAAATCCCCTCAA
# modifications: PS (*): T*TG*A*GGGGATTT*C*CCC / antisense 5'-G*GGGAAA*T*C*CCCTCAA
# B34: SEQ-37 (dsDNA)
# DNA 1: TTGAGGGGATTTCCCC
# DNA 2: GGGGAAATCCCCTCAA
# modifications: PS (*): T*T*G*A*GGGGATTT*C*CCC / antisense 5'-G*G*GGAAA*T*C*CCCTCAA
# B35: SEQ-38 (dsDNA)
# DNA 1: TTGAGGGGATTTCCCC
# DNA 2: GGGGAAATCCCCTCAA
# modifications: PS (*): TTG*A*GGGGATTT*C*CCC / antisense 5'-GGGGAAA*T*C*CCCTCAA
# B36: SEQ-45 (dsDNA)
# DNA 1: CCTTGAAGGGATTTCCCTCC
# DNA 2: GGAGGGAAATCCCTTCAAGG
# modifications: PS (*): C*C*TTGAAGGGATTTCCCT*C*C / 3'-G*G*…*A*A*GGGA*G*G
# B37: SEQ-44 (dsDNA)
# DNA 1: CCTTGAAGGGATTTCCCTCC
# DNA 2: GGAGGGAAATCCCTTCAAGG
# modifications: PS (*): C*C*TTGAAGGGATTTCCCT*C*C / 3'-G*G*AA*C*T*…*G*G
# Target: T1, NF-kB p65 (RelA) (UniProt Q04206 Q04206:1-551)
# Assay: competition
# Details: protein: extract; tags: native, Jurkat nuclear extract (TransAM NF-kB p65 kit, Active Motif)
# Method: (§1) Complete Lysis Buffer, Complete Binding Buffer, 1× Wash Buffer and 1× Antibody Binding Buffer are prepared. […] Jurkat nuclear extract was diluted with Complete Lysis Buffer to a concentration of 125 μg protein/mL.
# (§2) To each of the wells in a plate included in the kit, on which a NF-κB-binding nucleic acid is preliminarily immobilized, 30 μL each of the NF-κB Decoy Oligonucleotide Dilution prepared in (1) described above is added. To the wells of the blank and control, 30 μL each of Complete Binding Buffer was added. Then 20 μL each of the above-described Jurkat nuclear extract was added to each well. To each of the wells of the blank and control, 20 μL each of Complete Lysis Buffer was added. After shaking the plate at room temperature for 1 hour, each well was washed with 200 μL of 1× Wash Buffer 3 times, and 100 μL each of rabbit anti-NF-κB p65 antibody 1000-fold diluted with 1× Antibody Binding Buffer was added, followed by shaking the plate at room temperature for 1 hour. Thereafter, each well was washed with 200 μL of 1× Wash Buffer 3 times, and 100 μL each of HRP-labeled anti-rabbit IgG antibody 1000-fold diluted with 1× Antibody Binding Buffer was added to each well, followed by shaking the plate at room temperature for 1 hour. Thereafter, each well was washed with 200 μL each of 1× Wash Buffer 4 times, and 100 μL each of Developing Solution was added, followed by allowing coloring reaction in a dark room for 5 minutes. After the reaction, the coloring reaction was stopped by adding 100 μL each of Stop Solution. […] The percentage of the absorbance of each NF-κB decoy oligonucleotide at each of the concentrations was calculated taking the ratio of absorbances of the well of control as 100, and IC₅₀ of each decoy oligonucleotide was calculated from the approximate curve obtained by plotting the mean values of the above-mentioned percent absorbance.
# T1 sequence (Q04206 whole entry, one chain of several): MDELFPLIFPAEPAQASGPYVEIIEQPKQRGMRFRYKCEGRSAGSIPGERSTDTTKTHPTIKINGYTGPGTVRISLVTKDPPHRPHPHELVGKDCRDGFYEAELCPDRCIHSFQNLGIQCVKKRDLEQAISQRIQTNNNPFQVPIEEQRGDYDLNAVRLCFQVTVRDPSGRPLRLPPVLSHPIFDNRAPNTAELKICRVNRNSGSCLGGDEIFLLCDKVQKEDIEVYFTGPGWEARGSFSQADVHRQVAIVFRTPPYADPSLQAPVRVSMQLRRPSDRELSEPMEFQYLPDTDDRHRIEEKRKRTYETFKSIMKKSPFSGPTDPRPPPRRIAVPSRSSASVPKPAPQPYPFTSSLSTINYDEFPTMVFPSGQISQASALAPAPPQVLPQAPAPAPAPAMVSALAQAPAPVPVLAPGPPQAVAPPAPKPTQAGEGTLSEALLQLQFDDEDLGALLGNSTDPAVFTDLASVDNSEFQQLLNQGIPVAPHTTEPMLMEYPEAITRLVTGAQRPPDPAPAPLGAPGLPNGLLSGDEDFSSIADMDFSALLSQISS
row,Binder,binding signal
1,B1,> 1.48 IC50 ratio to SEQ-x
2,B2,0.66 IC50 ratio to SEQ-x
3,B3,> 1.48 IC50 ratio to SEQ-x
4,B4,0.02 IC50 ratio to SEQ-x
5,B5,> 2.93 IC50 ratio to SEQ-x
6,B6,> 1.67 IC50 ratio to SEQ-x
7,B7,0.72 IC50 ratio to SEQ-x
8,B8,0.2 IC50 ratio to SEQ-x
9,B9,0.19 IC50 ratio to SEQ-x
10,B10,> 2.87 IC50 ratio to SEQ-I
11,B11,1.39 IC50 ratio to SEQ-I
12,B12,0.61 IC50 ratio to SEQ-I
13,B13,0.42 IC50 ratio to SEQ-I
14,B14,0.3 IC50 ratio to SEQ-I
15,B15,0.28 IC50 ratio to SEQ-I
16,B16,0.26 IC50 ratio to SEQ-I
17,B17,> 3.45 IC50 ratio to SEQ-I
18,B18,2.07 IC50 ratio to SEQ-I

row,Binder,binding signal
1,B19,1.09 IC50 ratio to SEQ-I
2,B20,0.69 IC50 ratio to SEQ-I
3,B21,0.52 IC50 ratio to SEQ-I
4,B22,0.41 IC50 ratio to SEQ-I
5,B23,0.43 IC50 ratio to SEQ-I
6,B24,> 2.2 IC50 ratio to SEQ-I
7,B25,> 2.2 IC50 ratio to SEQ-I
8,B26,2.17 IC50 ratio to SEQ-I
9,B27,1.24 IC50 ratio to SEQ-I
10,B28,0.84 IC50 ratio to SEQ-I
11,B29,0.76 IC50 ratio to SEQ-I
12,B30,0.021 IC50 ratio to SEQ-x
13,B31,0.014 IC50 ratio to SEQ-x
14,B32,0.015 IC50 ratio to SEQ-x
15,B33,0.012 IC50 ratio to SEQ-x
16,B34,0.015 IC50 ratio to SEQ-x
17,B35,0.011 IC50 ratio to SEQ-x

# Target: T1, NF-kB p65 (RelA)
# Assay: competition; 0.16 relative to SEQ-X-PS (Table 7)
# Details: protein: extract; tags: native, Jurkat nuclear extract (TransAM NF-kB p65 kit, Active Motif)
# Method: as §1
# as §2, with “hour.” for “hour. Thereafter, each well was washed with 200 μL of 1× Wash Buffer 3 times, and 100 μL each of HRP-labeled anti-rabbit IgG antibody 1000-fold diluted with 1× Antibody Binding Buffer was added to each well, followed by shaking the plate at room temperature for 1 hour. Thereafter, each well was washed with 200 μL each of 1× Wash Buffer 4 times, and 100 μL each of Developing Solution was added, followed by allowing coloring reaction in a dark room for 5 minutes. After the reaction, the coloring reaction was stopped by adding 100 μL each of Stop Solution.”
row,Binder,binding signal
1,B36,1.43 IC50 ratio to SEQ-x

# Target: T1, NF-kB p65 (RelA)
# Assay: competition; 0.60 relative to SEQ-X-PS (Table 7)
# Details: protein: extract; tags: native, Jurkat nuclear extract (TransAM NF-kB p65 kit, Active Motif)
# Method: as §1
# as §2, with “hour.” for “hour. Thereafter, each well was washed with 200 μL of 1× Wash Buffer 3 times, and 100 μL each of HRP-labeled anti-rabbit IgG antibody 1000-fold diluted with 1× Antibody Binding Buffer was added to each well, followed by shaking the plate at room temperature for 1 hour. Thereafter, each well was washed with 200 μL each of 1× Wash Buffer 4 times, and 100 μL each of Developing Solution was added, followed by allowing coloring reaction in a dark room for 5 minutes. After the reaction, the coloring reaction was stopped by adding 100 μL each of Stop Solution.”
row,Binder,binding signal
1,B37,> 1.67 IC50 ratio to SEQ-x
